The assay deals with Frizzled-7 receptor, endogenous (rat (endogenous in fetal rat brain growth cone particles and hippocampal neurons)).

Where only a bound is given, the exact number is not on record here.

For “Wingless-type family member 3A (recombinant mouse Wnt3a) (from UniProt P27467 19-352) (ligand)”, the percent of hippocampal neurons with an identifiable Tau-1 containing axon (stage 3) after 20 h with 1.35 nM Wnt3a is > 55%.

(Values after article PMC3829478.)
